Common to all, as to assay: FACS, MEF-DKO cells, 3 µg/ml
One test concerns the target T1, hiR2-FL-P532A-T7 (human, UniProt Q6PJF5 1-856).
T1 sequence: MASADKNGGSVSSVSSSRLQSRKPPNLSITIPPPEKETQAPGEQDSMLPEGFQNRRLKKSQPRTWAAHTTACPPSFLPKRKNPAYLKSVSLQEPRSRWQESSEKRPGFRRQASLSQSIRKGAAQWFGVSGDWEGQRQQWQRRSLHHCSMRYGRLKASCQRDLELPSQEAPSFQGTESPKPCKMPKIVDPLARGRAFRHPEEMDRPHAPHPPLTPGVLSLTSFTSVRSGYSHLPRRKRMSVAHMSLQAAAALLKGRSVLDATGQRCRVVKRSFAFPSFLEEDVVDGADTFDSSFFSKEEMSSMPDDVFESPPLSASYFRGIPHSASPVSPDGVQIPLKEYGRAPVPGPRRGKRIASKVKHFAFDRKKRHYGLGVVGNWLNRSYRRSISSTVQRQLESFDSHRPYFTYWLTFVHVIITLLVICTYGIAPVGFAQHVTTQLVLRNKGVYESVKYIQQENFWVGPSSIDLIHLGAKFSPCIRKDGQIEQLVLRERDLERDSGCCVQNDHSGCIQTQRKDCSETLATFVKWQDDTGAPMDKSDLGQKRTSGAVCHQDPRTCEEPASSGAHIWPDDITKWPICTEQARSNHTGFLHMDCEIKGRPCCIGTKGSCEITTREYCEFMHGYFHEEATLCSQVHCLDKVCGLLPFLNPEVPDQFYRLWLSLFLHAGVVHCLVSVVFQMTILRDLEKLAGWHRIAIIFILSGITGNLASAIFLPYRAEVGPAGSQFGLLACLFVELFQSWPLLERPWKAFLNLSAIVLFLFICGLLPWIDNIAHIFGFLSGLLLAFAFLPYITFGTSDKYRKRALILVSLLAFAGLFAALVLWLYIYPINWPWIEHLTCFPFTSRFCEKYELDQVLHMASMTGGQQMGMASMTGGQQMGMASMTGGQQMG

The target in a further test is T2, hiR2-FL-A560S-T7 (human, UniProt Q6PJF5 1-856).
T2 sequence: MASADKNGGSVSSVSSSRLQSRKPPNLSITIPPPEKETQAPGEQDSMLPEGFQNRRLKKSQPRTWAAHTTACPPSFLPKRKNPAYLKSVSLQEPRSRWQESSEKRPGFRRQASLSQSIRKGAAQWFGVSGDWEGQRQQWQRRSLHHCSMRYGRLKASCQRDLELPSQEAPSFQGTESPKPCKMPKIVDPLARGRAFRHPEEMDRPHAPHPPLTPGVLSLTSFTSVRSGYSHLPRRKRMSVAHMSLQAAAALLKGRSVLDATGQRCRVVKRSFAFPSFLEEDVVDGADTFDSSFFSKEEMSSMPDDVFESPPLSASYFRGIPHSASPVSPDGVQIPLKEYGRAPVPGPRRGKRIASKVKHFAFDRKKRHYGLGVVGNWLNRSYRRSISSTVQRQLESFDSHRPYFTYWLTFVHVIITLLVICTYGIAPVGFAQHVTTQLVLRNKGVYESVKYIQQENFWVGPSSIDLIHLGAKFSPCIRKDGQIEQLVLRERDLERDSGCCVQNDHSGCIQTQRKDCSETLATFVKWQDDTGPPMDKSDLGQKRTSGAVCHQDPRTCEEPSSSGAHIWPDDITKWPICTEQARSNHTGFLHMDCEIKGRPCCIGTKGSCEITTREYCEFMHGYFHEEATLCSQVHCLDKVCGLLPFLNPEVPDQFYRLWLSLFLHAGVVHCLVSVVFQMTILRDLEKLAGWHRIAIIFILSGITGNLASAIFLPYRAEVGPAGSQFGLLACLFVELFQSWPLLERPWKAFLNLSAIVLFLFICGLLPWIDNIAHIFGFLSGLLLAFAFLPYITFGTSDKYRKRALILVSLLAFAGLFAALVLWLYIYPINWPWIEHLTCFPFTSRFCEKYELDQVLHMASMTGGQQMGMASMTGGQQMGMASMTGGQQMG

Another test deals with T3, hiR2-FL-T530P-T7 (human, UniProt Q6PJF5 1-856).
T3 sequence: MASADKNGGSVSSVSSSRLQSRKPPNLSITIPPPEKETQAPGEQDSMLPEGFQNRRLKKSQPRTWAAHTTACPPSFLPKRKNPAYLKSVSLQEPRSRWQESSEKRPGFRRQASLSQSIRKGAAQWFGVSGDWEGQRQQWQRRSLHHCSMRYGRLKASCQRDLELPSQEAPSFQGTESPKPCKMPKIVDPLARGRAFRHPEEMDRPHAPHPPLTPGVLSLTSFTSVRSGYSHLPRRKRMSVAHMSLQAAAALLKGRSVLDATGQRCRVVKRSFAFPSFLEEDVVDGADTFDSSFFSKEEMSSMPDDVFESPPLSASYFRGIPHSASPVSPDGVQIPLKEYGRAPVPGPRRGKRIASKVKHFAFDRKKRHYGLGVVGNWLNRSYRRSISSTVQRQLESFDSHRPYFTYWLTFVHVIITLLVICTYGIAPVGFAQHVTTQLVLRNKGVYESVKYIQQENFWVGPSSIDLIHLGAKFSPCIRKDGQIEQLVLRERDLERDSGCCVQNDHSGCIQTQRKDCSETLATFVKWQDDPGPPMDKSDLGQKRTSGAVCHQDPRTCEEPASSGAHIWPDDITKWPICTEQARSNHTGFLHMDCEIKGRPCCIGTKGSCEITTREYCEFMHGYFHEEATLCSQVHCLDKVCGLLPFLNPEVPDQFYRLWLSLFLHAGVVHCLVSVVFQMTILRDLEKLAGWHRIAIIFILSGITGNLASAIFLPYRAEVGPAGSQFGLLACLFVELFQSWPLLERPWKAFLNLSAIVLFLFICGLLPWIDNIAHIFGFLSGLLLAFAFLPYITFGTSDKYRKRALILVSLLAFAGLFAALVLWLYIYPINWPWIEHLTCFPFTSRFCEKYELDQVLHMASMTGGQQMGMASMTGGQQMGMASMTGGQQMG

B1: antibody 5 (antibody, V domains shown)
VH: QVTLKESGPGILQPSQTLSLTCSFSGFSLSTFGMGVGWIRQPSGKGLEWLAHIWWDDEKYYNSALKSRLTISKATSKNQAFLKIANVDTADTATYYCARISNYGSNYWYFNVWGTGTTVTVSS
VL: QVVLTQSPALMSASPGEKVTMTCSAGSSVSCMYWYQQKPGSSPRVLIYDTSNLASGVPARFTGSGSGTSYSLTISRMEAEDAASYYCQQWNSYPLTFGAGTKLELK
notes: mouse IgG, kappa light chain; also called clone #5; purified antibody 5
As to B1, in the test with hiR2-FL-P532A-T7, the “loss of binding vs wild type” value was at least 60%.

B2: antibody 44 (antibody, V domains shown)
VH: QVTLKESGPGILQPSQTLSLTCSFSGFSLSTFGMGVGWIRQPSEKGLEWLAHIWWDDDKYYNPALKSRLTISKDTSKNQIFLKITNVDTAETATYYCSRIGNYGSNYWYFDVWGTGTTVTVSS
VL: QIVLTQSPAVMSASPGEKVTMTCTASSSVYYMYWYQQTPGSSPRLLIYDTSNLASGVPVRFSGSGSGTSYSLTISRMEAEDAATYYCQQWNTYPLTFGAGTKLELK
notes: mouse IgG, kappa light chain; also called clone #44; purified antibody 44
Take B2: the “loss of binding vs wild type” value with hiR2-FL-P532A-T7 was at least 60%.

B3: antibody 43 (antibody, V domains shown)
VH: QVALKESGPGILQPSQTLSLTCSFSGFSLSTFGMGVGWIRQSSGKGLEWLANIWWDDDKYYNPALKSRLTISKDASKNQAFLKIANVDTADTATYYCARIGNYGSNYWYFDVWGTGTTVTVSS
VL: QIVLTQSPAIMSASPGERVTMTCSANSRISYMYWYQQKPGSSPRLLIYDTSNLASGVPVRFSGSGSGTSYSLTISRMEAEDAATYNCQQWSSYPLTFGAGTKLELK
notes: mouse IgG, kappa light chain; also called clone #43; purified antibody 43
With B3, the “loss of binding vs wild type” value with hiR2-FL-P532A-T7 was at least 60%.

B4: antibody 42 (antibody, V domains shown)
VH: QVTLKESGPGILQPSQTLSLTCSLSGFSLSTFGRGVGWIRQPSGKGLEWLAHIWWDDEKYYNPALKSRLTISKDTSKNQVFLRIANVDTADTATYYCARIQNYGSNYWYFDVWGTGTTVTVSS
VL: LIVLTQSPAIMSASPGEKVTMTCGATSRISYMFWYQQKPGSSPRVLIYDTSNLASGVPVRFSGSGSGTSYSLTISRVEAEDVATYYCQQWNSYPLTFGAGTKLELK
notes: mouse IgG, kappa light chain; also called clone #42; purified antibody 42
As for B4, the “loss of binding vs wild type” value with hiR2-FL-P532A-T7 was at least 60%; with hiR2-FL-A560S-T7, at least 30%; with hiR2-FL-T530P-T7 it was at least 30%.

B5: antibody 22 (antibody, V domains shown)
VH: QVTLKESGPGILQPSQTLSLTCSFSGFSLSTFGMGVGWIRQPSGKGLEWLAHIWWDDEKYYNSALKSRLTISKATSKNQVFLKIANVDTADTATYYCARISNYGSNYWYFNVWGTGTTVTVSS
VL: QVVLTQSPALMSASPGEKVTMTCSAGSSVSYMYWYQQKPGSSPRVLIYDTSNLASGVPARFTGSGSGTSYSLTISRMEAEDAATYYCQQWNSYPLTFGAGTKLELK
notes: mouse IgG, kappa light chain; also called clone #22; purified antibody 22
With B5, the “loss of binding vs wild type” value in the test with hiR2-FL-P532A-T7 is at least 30%.

B6: antibody 48 (antibody, V domains shown)
VH: QVQLQQSGTELVRPGTSVKVSCKASGYAFTNYLIEWVKQRPGQGLEWIGVINPGSGFTKYNEKFKGKATLTADKSSSTVYMHLSSLTSEDSAVYFCARGLYRAMDYWGQGTSVTVSS
VL: DIQMTQSPASQSASLGESVTITCLASQTIATWLAWYQQKPGKSPQLLIYGATTLADGVPSRFSGGGSGTKFSFKISSLQAEDFVSYYCQQLYSTPYTFGGGTKLEIK
notes: mouse IgG, kappa light chain; also called clone #48; purified antibody 48
On to B6, for which the “loss of binding vs wild type” value in the test with hiR2-FL-A560S-T7 and in the test with hiR2-FL-T530P-T7 was at least 30% in each case.

B7: antibody 50 (antibody, V domains shown)
VH: QVQLQQSGAELVRPGASVKVSCKASGYAFSNYLIEWVKQRPGQGLEWIGVINPGSGFTKYNEKFKGKATLTADKSSSTAYMQLSSLTSEDSAVYFCARGLYRAMDYWGQGTSVTVSS
VL: DIQMTQSPASQSASLGESVTITCLASQTIGTWLAWYQQKPGKSPQLLIYAAASLADGVPSRFSGGGSGTKFSFKISSLQAEDFVNYYCQQIYSTPYTFGGGTKLEIK
notes: mouse IgG, kappa light chain; also called clone #50; purified antibody 50
As for B7, the “loss of binding vs wild type” value with hiR2-FL-A560S-T7 and in the test with hiR2-FL-T530P-T7 was at least 30% in each case.

The record behind these values is patent US20240287172A1 (SCIRHOM, published 2024).
